# In patent publication US20160230205A1 (R P SCHERER TECHNOLOGIES, published 2016):
# T1: 14 amino acid FGE substrate peptide ALCTPSRGSLFTGR
# T1 chain: ALCTPSRGSLFTGR
# T2: Streptomyces coelicolor formylglycine-generating enzyme (Sc-FGE), wild-type, with N-terminal hexahistidine … (Streptomyces coelicolor, UniProt Q9F3C7 1-314)
# T2 construct: Made in E. coli BL21(DE3); also called S. coelicolor FGE; not shown: N-terminal hexahistidine tag and TEV protease cleavage site from the pET151-D/TOPO vector
# T2 sequence (looked up): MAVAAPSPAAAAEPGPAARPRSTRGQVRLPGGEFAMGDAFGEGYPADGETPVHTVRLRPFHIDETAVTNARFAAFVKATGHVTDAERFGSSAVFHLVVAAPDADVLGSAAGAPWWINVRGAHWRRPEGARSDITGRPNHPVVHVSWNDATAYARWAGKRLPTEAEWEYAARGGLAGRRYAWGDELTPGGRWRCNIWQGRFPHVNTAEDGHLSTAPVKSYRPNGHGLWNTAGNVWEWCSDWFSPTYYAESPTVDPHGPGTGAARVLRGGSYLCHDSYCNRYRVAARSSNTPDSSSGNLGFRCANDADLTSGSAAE
# Experiments:
# [1] = molecular target: T1, 14 amino acid FGE substrate peptide …
# [2] = molecular target: T2, Streptomyces coelicolor …; assay: Michaelis-Menten kinetics from discontinuous RP-HPLC activity assay
binding result [2],Binder,KM [1]
–,Catalytic core of H. sapiens formylglycine-generating enzyme with TEV protease site and C-terminal His6 tag (Hs-cFGE) (protein) DRSLEANAPGPVPGERQLAHSKMVPIPAGVFTMGTDDPQIKQDGEAPARRVTIDAFYMDAYEVSNTEFEKFVNSTGYLTEVAAAPWWLPVKGANWRHPEGPDSTILHRPDHPVLHVSWNDAVAYCTWAGKRLPTEAEWEYSCRGGLHNRLFPWGNKLQPKGQHYANIWQGEFPVTNTGEDGFQGTAPVDAFPPNGYGLYNIVGNAWEWTSDWWTVHHSVEETLNPKGPPSGKDRVKKGGSYMCHRSYCYRYRCAARSQNTPDSSASNLGFRCAADRLPTMDKGENLYFQGHHHHHH,KM=0.34 µM
binds,ALCTPSRGSLFTGR (Used as substrate for both the Sc and Hs forms of the enzyme; also called Csub) [14 amino acid FGE substrate peptide ALCTPSRGSLFTGR],–
–,"Streptomyces coelicolor formylglycine-generating enzyme (Sc-FGE), wild-type, with N-terminal hexahistidine tag and TEV protease cleavage site, activated with … (protein) MAVAAPSPAAAAEPGPAARPRSTRGQVRLPGGEFAMGDAFGEGYPADGETPVHTVRLRPFHIDETAVTNARFAAFVKATGHVTDAERFGSSAVFHLVVAAPDADVLGSAAGAPWWINVRGAHWRRPEGARSDITGRPNHPVVHVSWNDATAYARWAGKRLPTEAEWEYAARGGLAGRRYAWGDELTPGGRWRCNIWQGRFPHVNTAEDGHLSTAPVKSYRPNGHGLWNTAGNVWEWCSDWFSPTYYAESPTVDPHGPGTGAARVLRGGSYLCHDSYCNRYRVAARSSNTPDSSSGNLGFRCANDADLTSGSAAE",KM=96 µM
